Patent US20240117018A1

Key:
Assay in all cases: cell-based or functional assay
[1] = target: HIV-1 Env of pseudovirus 0260.v5.c36 (HIV-1)
[2] = target: HIV-1 Env of pseudovirus HIV-001428-2.42 (HIV-1)
[3] = target: HIV-1 Env of pseudovirus 1056_10_TA11_1826 (HIV-1)
[4] = target: HIV-1 Env of pseudovirus CAP210.2.00.E8 (HIV-1)
[5] = target: HIV-1 Env of pseudovirus Ce0682_E4 (HIV-1)
[6] = target: HIV-1 Env of pseudovirus ZM249M.PL1 (HIV-1)
[7] = target: HIV-1 Env of pseudovirus Q23.17 (HIV-1)
[8] = target: HIV-1 Env of pseudovirus Ce1086_B2 (HIV-1)
[9] = target: HIV-1 Env of pseudovirus 246F C1G (HIV-1)
[10] = target: HIV-1 Env of pseudovirus CNE21 (HIV-1)
[11] = target: HIV-1 Env of pseudovirus 1006_11_C3_1601 (HIV-1)
[12] = target: HIV-1 Env of pseudovirus QH0692.42 (HIV-1)
[13] = target: HIV-1 Env of pseudovirus T250-4 (HIV-1)
[14] = target: HIV-1 Env of pseudovirus Q461.e2 (HIV-1)
[15] = target: HIV-1 Env of pseudovirus SC05_8C11_2344 (HIV-1)
[16] = target: HIV-1 Env of pseudovirus SC422661.8 (HIV-1)
[17] = target: HIV-1 Env of pseudovirus 249M B10 (HIV-1)
[18] = target: HIV-1 Env of pseudovirus Ce1172_H1 (HIV-1)
[19] = target: HIV-1 Env of pseudovirus Ce704809221_1B3 (HIV-1)
[20] = target: HIV-1 Env of pseudovirus CNE30 (HIV-1)
[21] = target: HIV-1 Env of pseudovirus CNE8 (HIV-1)
[22] = target: HIV-1 Env of pseudovirus BF1266.431a (HIV-1)
[23] = target: HIV-1 Env of pseudovirus Du156.12 (HIV-1)
[24] = target: HIV-1 Env of pseudovirus CAP45.2.00.G3 (HIV-1)
[25] = target: HIV-1 Env of pseudovirus C2101.c01 (HIV-1)
[26] = target: HIV-1 Env of pseudovirus Q259.d2.17 (HIV-1)
[27] = target: HIV-1 Env of pseudovirus 6535.3 (HIV-1)
[28] = target: HIV-1 Env of pseudovirus HIV-16845-2.22 (HIV-1)
[29] = target: HIV-1 Env of pseudovirus CNE17 (HIV-1)
[30] = target: HIV-1 Env of pseudovirus TRJO4551.58 (HIV-1)
[31] = target: HIV-1 Env of pseudovirus PVO.4 (HIV-1)
[32] = target: HIV-1 Env of pseudovirus 3415.v1.c1 (HIV-1)
[33] = target: HIV-1 Env of pseudovirus 6240_08_TA5_4622 (HIV-1)
[34] = target: HIV-1 Env of pseudovirus THRO4156.18 (HIV-1)
[35] = target: HIV-1 Env of pseudovirus 3365.v2.c2 (HIV-1)
[36] = target: HIV-1 Env of pseudovirus CNE19 (HIV-1)
[37] = target: HIV-1 Env of pseudovirus 7030102001E5(Rev-) (HIV-1)

N49P7 (antibody)
IC50 [1]: 0.354 µg/mL
IC80 [1]: 0.884 µg/mL
MPI [1]: 100
IC50 [2]: 0.006 µg/mL
IC80 [2]: 0.02 µg/mL
MPI [2]: 100
IC50 [3]: 0.141 µg/mL
IC80 [3]: 0.468 µg/mL
MPI [3]: 100
IC50 [4]: 1.82 µg/mL
IC80 [4]: 6.49 µg/mL
MPI [4]: 100
IC50 [5]: 0.041 µg/mL
IC80 [5]: 0.131 µg/mL
MPI [5]: 100
IC50 [6]: 0.039 µg/mL
IC80 [6]: 0.134 µg/mL
MPI [6]: 100
IC50 [7]: 0.052 µg/mL
IC80 [7]: 0.21 µg/mL
MPI [7]: 100
IC50 [8]: 0.089 µg/mL
IC80 [8]: 0.568 µg/mL
MPI [8]: 100
IC50 [9]: 0.094 µg/mL
IC80 [9]: 0.255 µg/mL
MPI [9]: 100
IC50 [10]: 0.756 µg/mL
IC80 [10]: 6.02 µg/mL
MPI [10]: 97
IC50 [11]: 0.044 µg/mL
IC80 [11]: 0.158 µg/mL
MPI [11]: 100
IC50 [12]: 0.663 µg/mL
IC80 [12]: 2.41 µg/mL
MPI [12]: 100
IC50 [13]: 2.07 µg/mL
IC80 [13]: 21.4 µg/mL
MPI [13]: 91
IC50 [14]: 0.261 µg/mL
IC80 [14]: 0.922 µg/mL
MPI [14]: 100
IC50 [15]: 0.164 µg/mL
IC80 [15]: 0.403 µg/mL
MPI [15]: 100
IC50 [16]: 0.114 µg/mL
IC80 [16]: 0.32 µg/mL
MPI [16]: 100
IC50 [17]: 0.081 µg/mL
IC80 [17]: 0.377 µg/mL
MPI [17]: 100
IC50 [18]: 8.5 µg/mL
IC80 [18]: 37.5 µg/mL
MPI [18]: 92
IC50 [19]: 0.141 µg/mL
IC80 [19]: 0.932 µg/mL
MPI [19]: 100
IC50 [20]: 0.18 µg/mL
IC80 [20]: 0.609 µg/mL
MPI [20]: 100
IC50 [21]: 0.037 µg/mL
IC80 [21]: 0.125 µg/mL
MPI [21]: 100
IC50 [22]: 0.057 µg/mL
IC80 [22]: 0.199 µg/mL
MPI [22]: 100
IC50 [23]: 0.032 µg/mL
IC80 [23]: 0.086 µg/mL
MPI [23]: 100
IC50 [24]: 0.06 µg/mL
IC80 [24]: 0.29 µg/mL
MPI [24]: 100
IC50 [25]: 0.06 µg/mL
IC80 [25]: 0.34 µg/mL
MPI [25]: 100
IC50 [26]: 0.332 µg/mL
IC80 [26]: 2.47 µg/mL
MPI [26]: 98
IC50 [27]: 0.186 µg/mL
IC80 [27]: 0.598 µg/mL
MPI [27]: 100
IC50 [28]: 0.95 µg/mL
IC80 [28]: 3.94 µg/mL
MPI [28]: 100
IC50 [29]: 0.126 µg/mL
IC80 [29]: 0.46 µg/mL
MPI [29]: 100
IC50 [30]: 0.104 µg/mL
IC80 [30]: 0.351 µg/mL
MPI [30]: 100
IC50 [31]: 0.107 µg/mL
IC80 [31]: 0.365 µg/mL
MPI [31]: 100
IC50 [32]: 0.16 µg/mL
IC80 [32]: 0.55 µg/mL
MPI [32]: 100
IC50 [33]: 0.457 µg/mL
IC80 [33]: 1.73 µg/mL
MPI [33]: 100
IC50 [34]: 2.34 µg/mL
IC80 [34]: 12.4 µg/mL
MPI [34]: 99
IC50 [35]: 0.07 µg/mL
IC80 [35]: 0.186 µg/mL
MPI [35]: 100
IC50 [36]: 0.009 µg/mL
IC80 [36]: 0.041 µg/mL
MPI [36]: 100
IC50 [37]: 0.184 µg/mL
IC80 [37]: 0.832 µg/mL
MPI [37]: 100

VRC07 (antibody)
IC50 [1]: 0.448 µg/mL
IC80 [1]: 1.62 µg/mL
IC50 [2]: 0.004 µg/mL
IC80 [2]: 0.016 µg/mL
IC50 [3]: 0.239 µg/mL
IC80 [3]: 1.11 µg/mL
IC50 [4]: > 50 µg/mL
IC80 [4]: > 50 µg/mL
IC50 [5]: 0.039 µg/mL
IC80 [5]: 0.239 µg/mL
IC50 [6]: 0.041 µg/mL
IC80 [6]: 0.145 µg/mL
IC50 [7]: 0.081 µg/mL
IC80 [7]: 0.236 µg/mL
IC50 [8]: 0.128 µg/mL
IC80 [8]: 0.84 µg/mL
IC50 [9]: 0.286 µg/mL
IC80 [9]: 1.04 µg/mL
IC50 [10]: 0.05 µg/mL
IC80 [10]: 0.222 µg/mL
IC50 [11]: 0.015 µg/mL
IC80 [11]: 0.046 µg/mL
IC50 [12]: 0.5 µg/mL
IC80 [12]: 1.86 µg/mL
IC50 [14]: 0.282 µg/mL
IC80 [14]: 1.02 µg/mL
IC50 [15]: 0.133 µg/mL
IC80 [15]: 0.401 µg/mL
IC50 [16]: 0.054 µg/mL
IC80 [16]: 0.175 µg/mL
IC50 [17]: 0.052 µg/mL
IC80 [17]: 0.204 µg/mL
IC50 [18]: > 50 µg/mL
IC80 [18]: > 50 µg/mL
IC50 [19]: 0.273 µg/mL
IC80 [19]: 1.14 µg/mL
IC50 [20]: 0.326 µg/mL
IC80 [20]: 1.08 µg/mL
IC50 [22]: 0.032 µg/mL
IC80 [22]: 0.117 µg/mL
IC50 [23]: 0.041 µg/mL
IC80 [23]: 0.149 µg/mL
IC50 [24]: 0.355 µg/mL
IC80 [24]: 3.09 µg/mL
IC50 [26]: 0.024 µg/mL
IC80 [26]: 0.1 µg/mL
IC50 [27]: 0.169 µg/mL
IC80 [27]: 0.517 µg/mL
IC50 [28]: 1.21 µg/mL
IC80 [28]: 6.15 µg/mL
IC50 [29]: 0.136 µg/mL
IC80 [29]: 0.651 µg/mL
IC50 [30]: 0.032 µg/mL
IC80 [30]: 0.125 µg/mL
IC50 [31]: 0.063 µg/mL
IC80 [31]: 0.226 µg/mL
IC50 [32]: 0.036 µg/mL
IC80 [32]: 0.152 µg/mL
IC50 [33]: 0.448 µg/mL
IC80 [33]: 1.54 µg/mL
IC50 [34]: 2.4 µg/mL
IC80 [34]: 12.2 µg/mL
IC50 [35]: 0.038 µg/mL
IC80 [35]: 0.109 µg/mL
IC50 [36]: 0.092 µg/mL
IC80 [36]: 0.232 µg/mL
IC50 [37]: 0.205 µg/mL
IC80 [37]: 0.911 µg/mL

8ANC195 (antibody)
IC50 [2]: > 50 µg/mL
IC80 [2]: > 50 µg/mL
IC50 [3]: > 50 µg/mL
IC80 [3]: > 50 µg/mL
IC50 [4]: > 50 µg/mL
IC80 [4]: > 50 µg/mL
IC50 [5]: 0.2 µg/mL
IC80 [5]: 1.29 µg/mL
IC50 [6]: > 50 µg/mL
IC80 [6]: > 50 µg/mL
IC50 [7]: 2.55 µg/mL
IC80 [7]: 2.55 µg/mL
IC50 [8]: 4.42 µg/mL
IC80 [8]: 19.1 µg/mL
IC50 [9]: 12.8 µg/mL
IC80 [9]: > 50 µg/mL
IC50 [10]: 0.27 µg/mL
IC80 [10]: 1.52 µg/mL
IC50 [11]: 0.43 µg/mL
IC80 [11]: 1.98 µg/mL
IC50 [12]: 2.71 µg/mL
IC80 [12]: 17.1 µg/mL
IC50 [14]: 0.63 µg/mL
IC80 [14]: 2.51 µg/mL
IC50 [15]: 0.47 µg/mL
IC80 [15]: 3.06 µg/mL
IC50 [16]: 0.29 µg/mL
IC80 [16]: 4.67 µg/mL
IC50 [17]: > 50 µg/mL
IC80 [17]: > 50 µg/mL
IC50 [18]: 42.3 µg/mL
IC80 [18]: > 50 µg/mL
IC50 [19]: 0.48 µg/mL
IC80 [19]: 3.52 µg/mL
IC50 [20]: 7.52 µg/mL
IC80 [20]: 40.5 µg/mL
IC50 [22]: > 50 µg/mL
IC80 [22]: > 50 µg/mL
IC50 [23]: 0.22 µg/mL
IC80 [23]: 1.56 µg/mL
IC50 [24]: 28.3 µg/mL
IC80 [24]: > 50 µg/mL
IC50 [26]: > 50 µg/mL
IC80 [26]: > 50 µg/mL
IC50 [27]: 0.2 µg/mL
IC80 [27]: 0.91 µg/mL
IC50 [28]: 3.3 µg/mL
IC80 [28]: 20.1 µg/mL
IC50 [29]: 2.59 µg/mL
IC80 [29]: 11.1 µg/mL
IC50 [30]: 0.19 µg/mL
IC80 [30]: 1.17 µg/mL
IC50 [31]: 0.52 µg/mL
IC80 [31]: 1.87 µg/mL
IC50 [32]: 17.7 µg/mL
IC80 [32]: 17.7 µg/mL
IC50 [33]: > 50 µg/mL
IC80 [33]: > 50 µg/mL
IC50 [34]: > 50 µg/mL
IC80 [34]: > 50 µg/mL
IC50 [35]: > 30 µg/mL
IC80 [35]: > 30 µg/mL
IC50 [36]: 0.29 µg/mL
IC80 [36]: 1.73 µg/mL
IC50 [37]: 0.86 µg/mL
IC80 [37]: 8.32 µg/mL
